Experiment: soluble on expression in E. coli; label from the status in PepcDB or PDB records

Sequence	soluble on expression in E. coli
MGSDKIHHHHHHMNTPLYKALIQHARRNSHSFHVPGHHNGDVFFDDAKSIFDPLLTIDVTELAGLDDLHHPSGVIKEAQELASQLYGSAESFFLVNGTTVGNLAMILSVCEPGDTILVQRNCHKSVFHAVDLSGAEPVYLAPDVDSAMHVPTHVPLGTIKEALEAYPDAKGLVLTNPTYYGHSADLTEIITEAHHYGIPVLVDEAHGAHFILGEPFPVSALKMGADIVVQSAHKTLPAMTMGSYLHLNSSCRINRDRVAEYLNRLQSSSPSYPIMASLDIARAYVQHIIEEQKLSDILQRIETLKQTFDSLTNAEAVNPANPLIITDPLKLTIRSKRGHSGYTLQSILERANIFTELADENQVLLVLPLGGKRRINAEIIRSIDEEIEKTPPDQTFVSAEWGVQPVTVLPYPKKVLHSFKKEYVSFEEAAGRLNAEDIIPYPPGIPMIMAGERITKESVQKLSRLISMKTHVQGNMKIKEKQLLVYIEEEKS	not soluble
MGSDKIHHHHHHMNDLLPFLAQVSLFKGIETEELPKMLNRLNARKVSYKKNDVILREGQSVHSVGIMLSGKVKVVKEDFKGNTNVMTFIEPGAMFAEAYACTQTANLPFTVLSVMETKILWIDYRKIISTCTSACESHEKLIENMMKALASKSILLNQKIEHISKRTTQEKLLTYLFDQSKKSGSNEFEIPFSRQELADYLCVDRSAMSNELCKLQREGVLNFHLNHFKLSKSSSEAQL	not soluble
MSLTSPSELRSGKTHRDENFPVASWIIHPRHRDLILAFYNFVRTADDIADHEMLDGDTKLEYLDLLEAELLGRGETQPEAVHLRRALAERGMPPRHALDLLTAFRMDVTKLRYEDWDEVIHYCRYSAMPVGRFMLDVHGESTTTWQASDALCAGLQINNHLQDCGKDYRTLNRVYLPRDVLDAAGAKVEDLGLQKSSPALLKCLQGLAVRTASLLGDGRPLAAEIKDYRLGLEVSVIQAYADRIVRMLQTRDPLSERVHLKPIEFVIASFGAMSSEIVRRSEGHHHHHH	soluble
MGSDKIHHHHHHMKYQQKLRNMIDFIGKHLDEELSLESLSEIFCISKFHFHRLFTAFTGLSLQQYIKWLRLKRAAHQLIVDKDQSVINIAINAGFESHEAFSRAFKKACGFSPSQFRQGFGRSYWEQPPYCLPGQSRTDMKVDIKSIDKIRLAVIEHKGDPKLLGESINKLVSWAKSQSINLKPRAGEAFALAYDDPKTTPPSDFRIDLGIKVPENLKLDGVIEKFLPSGRYAVTVHKGSRNNIGDVVYYLYRDWLPNTSEQLGDLPCIFCYYNFDHEVAETELLTECWLLLK	not soluble
MADPGSVGHVFRRAFSWLPAQFASQSDAPVGAPRQFRSTEHLSIEAIAAFVDGELRMNAHLRAAHHLSLCAQCAAEVDDQSRARAALRDSHPIRIPSTLLGLLSEIPRCPPEGPSKGSSGGSSQGPPDGAAAGFGDRFADGDGGNRGRQSRVRR	soluble
MAVNPATGKSDFVMMSEQQELGMGARYNQEILKQFPRYNDEKLQAYVQRVGERVARSSHRSNLQYHFTVIDSPDINAFALPGGYIYIHRGLIAYLGSEAELAAVLGHEVGHVTARHSVRQQSQASAWNILGQAVAIGTGVGAAGDLANVLGTAFVRGYGRDMELEADGLGAQYLARAGYDPTAMIQVVRVLKNQEDFAREEAARNGQAVQAGGYHGLFDTHPDNDRRLQEVVGPARQLANGQQEVGREVFLRHLEGMPFGDSASAGVRRGQNFYHAELDFTLSYPAGWKILNQPSALLGYPADEQSFIGMKLVPHDSRLTPAEFLRKNAGQRLAQEESLKQAGLNGYTAVVPGNPARRVAVIYQGDRAYLFVGVVKVGSLETQDDRFLSVIRSFRPLRDKERALAQPRRLHLVQVKAGQTLEQLAAGGEGSLSDSVARLRLLNDLYPSGEPRPGDWLKVVRLEHHHHHH	not soluble
MWNNVTTIKIQFHRIEQLGSVQLDDKNRICKFTSFDGQLELQGRHGRCSVDIESPEFVRFVQFLVNKTEKSNEPIDQRRVFGKFRALEHGVLDVTTYRNRFHGVVARNMILLDNLSIDLSIRMIFALSGKMETNFLSEVEKHGIVRLDNQNRIIEYVANDGKMKLKGQHDGRKDHGTQATQDPV	not soluble
MKITKISLFQKVLPYCSGSLAIGDLSENRTKPFDTFTSSVVVINTDQGVSGVGESCPWVSDNLNEKEVYDCLASRLLGEDPHNLKGIVKNMDAVIQGHTFAKSAIDMACWDIKAKDNGVPLFELLGGMLTDGAPLYRCVMEQEHDKIKAEVEQYRASGYKYFKLRVGIEPDKDIELIKFAANLAEPGEIVYADANCRWTLSEALEVVKAIEGLDVMIEQPCLSYEDCIKVRENTGLLIKLDELVTDLTMAKKIVRDHTADVVCIKMSRVGGLSKALEIRDFFVKKGIKVVTECMMGGEIVSAAVSHFSASTPSEFLFNTGDLHAYVTASTGNISPPTLNGRIYCNDSPGLGVEPDLTSLGTPIAIYQN	soluble
MSICDPALRNALRTLKLSGMLDTLDARLAQTRNGDLGHLEFLQALREDEIARRESAALTRRLRRAKFEAQATFEDFDFTANPKLPGAMLRDLAALRWLDAGESVILHGPVGVGKTHVAQALVHAVARRGGDVRFAKTSRMLSDLAGGHADRSWGQRIREYTKPLVLILDDFAMREHTAMHADDLYELISDRAITGKPLILTSNRAPNNWYGLFPNPVVAESLLDRLINTSHQILMDGPSYRPRKRPGRTTS	not soluble
MFVTLEVSDRAPLEATMSTPHHPVAIIGGGLGGLTAARVLHVNGIESAVFDLESGPEARTQGGMLDIHEENGQEAIRAAGLHDEFREIIHEGGQAMRLVGPDGTVRVATEDQGDGGRPEVDRGDLRGLLLNSLPDGTVHWRHKATGARALDDGRHEVTFADGSALTTDLLIGADGAWSRIRPLLSDAEPAYTGISFVESDLHEADTRHPRSAALVGGGFFISLGDRRGFLAHRETDGSLHVYTALRADEGWIDTVDFTDHAAAKAAVLAHFDGWDEGLRSLVAHAETITPRRIHALPVGHRWKRTPGVTLLGDAAHLMSPFAGEGANLAMYDGAELALALAAHPGDTEAALTQYEEGLFPRSEASAVESAGSLDTMFGTDGLEQMIGFFGAGRAEALEHHHHHH	not soluble
GQSAKEAIEAANADFVKAYNSKDAAGVASKYMDDAAAFPPDMARVDGRQNIQKLWQGAMDMGISELKLTTLDVQESGDFAFESGSFSLKAPGKDSKLVDAAGKYVVVWRKGQDGGWKLYRDIWNSDPAK	soluble
MKVLVSPMSVAEAIEAIEGGADIIDVKNPAEGSLGANFPWVIREISELAKKYGKEISATTGDMPYKPGTASLAALGAAVAGADYIKVGLYGVKNAEEAYEMMVGVVRAVKDFDSSKKVVAAGYGDYYRISSVSPLDLPEAVAKAGADIVMVDTAIKDGTSLFDHMKIGDIESFVKLARDNGLMVALAGNISWNHIETLKELSPDIIGVRSIVCEGDRSSMIKRELVVKLMEAVHG	not soluble
GHHHHHHAIAENLYFQSDLFETSQIEKLLESLENYQPAFPDALVRYYLAKSGFQTDDIRAERLVALAAQKFVADVANDALNHVKLRQQSQATSKKSKENEVILTVEDLSKALEEYGVHLKKPPYYVDSPVVGVGSANLKKRKTEQVTSVKPEEKSLEGKEVFKEEPKEEDKELTQEPENV	soluble
MQCNVCEFGCEIDEYSRGRCRTYVCTGDTIIQDPDMGYLGAYPVSIETIPLLHYYPSGKFLQVFGTGCNFQCSGCVARLLASGKSLSSTTLTPSQVVEKALQQDCLGVVSTLNEPAANYYLFRDLAVQAKEKGLLVGCSTNCYFTEETLNKLGQLVDFMNVGIKGYSDRSYISCGVPSSAPVFRNISLLFDMGVHVETSVVYSRGNEADVIKVAEAVSDISPTIPVQVMRFIPFGDAPIELEPSVGEAESLCADLRKYVDYVYLFNSPGTELLNTYCPECGSLLAEREFYGPMGSRPVRPWITYSCDCGKTVPVKGTTAVERFNEEGFMGGYRISRAFGMVHGVLTCLGILDDSRLIDVWREISDSGTLMKVHHMIQQPYAYLDFVRLIAERANMPEKGEELISFIHTRLELVKSLAAENSGHKVYYCMGSPLFALNAGRMENNLVAFSGGLSINKQLQKEGKPGINVSPSFINENNPDTIFISGFLSRPLDEFYTLCRQYGIETDAVKQQRVYEVPPSWDFGNPRWILGLMYIADKLYPGNSGIDLEKEADEFYRQFYGMPYLEHHHHHH	not soluble
MAHHHHHHMAALQHVNSATEITPLLACGGDYVKNGTQTLSIPSVYATLDALESLWQAQREKQHLSVRGRAQGLRHYHAVYEASARCVPLSLTRWEQWLAGLSEQGARSTVGACPDELSSSSSPHVQRVQKELVDSYWHLYRRLCWGSSGAAKAGLAAVLEHTDSAASGLPSVMATGAASLLAKQEAALAKPLQAFARLSADRHTCSPITR	not soluble
MGVILLLLIIVFSFSKEAYYCIQVLSSRDLSSAERAYRKLADYPHARIEKIGDYYTVRVGLWENKSKAKEYLSQVKSVYPGAFLRTCYYIEDRIVSINKGNVKKKVESFNGKELVLHGKNEKELICKAVKKVFEDIVSFEGKLTKREITFKSYFPYSVADAVNYALILNKKEGFIPVRCRVYKRDKITYVLELEGFKNGKVKGIKAVDYASVTYRNKVLRLKLIF	not soluble
MAHHHHHHMAPMSSSGIRGLSLRSVRETVHCATTQTTSAPPPPANCQQHQLLNTTEDKCNAIFAEVELLSKWLQHAVESRAHVEREAYALLQQADVKIQHLEDTVRQKEMELLYMRGAMESLRTRVEFYECRERRIEGDDDDANFPLRREADFKGAAVRKVVIMGENNTNDSYCSNRMGRGNGVMSPADFTVDSTEQLNAGKCVDLGTTATTCNSNGVDNASVSSPAETGVGGRSRVGHSALSWVRYLLERCVSNSGKDGASEGAASMKKKGEGNDQLADALTMLTTLQCQYADPNGDLVMMNSLCTKFSNSIVAVAEELNTALQIPLKRASNTTDSLQISQAAKVVEHPESAAEALPSSNQEPIMQCRKSVVEENLQLLQSLMAVESSSREAWSTLQKY	not soluble
MKLSAYHKARGGLVEWWNPKNHYDLVYKSRVFTDTYSKDTIAVTNADAVILGGTGYDLGENLPDAVEHTRPDAALYPQFSDTAYGFLSRGCPRNCGFCIVSGKEGRRSRKVADLSEFWDGQKEIKLLDANLLACPDHEALILQLAESRAWVDFSQGLDIRLITPDNVALLNRVRTRAVHFAWDNPDEDLTGYFRRFLELTAIKSDRKRRVYVLTNYGSTHEQDLYRVETLRGMGYDPYVMVYDRPAAPKITRQLQRWVNNKRIFYTVKNFADYIPNRTGGIT	not soluble
MEEELASYKLQLQQVEAALLGDPTNVELLKLKEDLGEIISLQEDLAETDKAESSERAVVAPQVIHKWTVGERVIAPHPDGKKVFARIDSLTPAGVAITFTSTGTKTIVDPADLQLPPENQRKNYAFDNTKSAAGPSTQHGKKEWQAEKERRRQKALKKQQKQKELDSIKDGEKKSWQKFNTKANAKGLKGLKKVSATGSSQDGSASSSGGGGEKRGTIVSSRSSQFIFKATRGAMDSLF	not soluble
MNYYGTSMWASDNNTASNSDSSLNLLGILLLASENNKLINNTVLTNLYGVNLMAESTGIGDKTGPSENILASNIISYNLGTGILFDESYGNLIYNNSFDNIWNVEDESLNTWNSSEIGNYWSDYEGEDADGDGVGDTPYLINSHTGSMDYLPVTRSSDFPELEHHHHHH	not soluble
GMSYQNANYSAFYVSEPFSESNLGANSTHDFVYYNMLRMWKGEDNSFPFNDAHDKTYNVRDGSDWEKTLKPRLHTRLDNSKNIILFLSSITANSRALREEMNYGIGTKGLPVIVIYPDYDKKSDIVDSNGNFKKQIKDLWDKLPAFRDNMSSVATLHIPCTKSVIISALNNEDFMVNTMADAEKYYYKP	soluble

Source: the DeepSol protein solubility set
